Test results reported in patent US20180305695, “DNA APTAMER THAT BINDS TO vWF” (TAGCYX BIOTECHNOLOGIES, published 2018).

Molecular target: von Willebrand factor A1 domain (Homo sapiens, UniProt P04275 SEQ:1277-1453)
Experiment: EMSA; positive control, gel 4 C; substantially no binding with gel at 25-37 C
Conditions: tags: U-Protein Express V003; label: biotin (SPR)
Method: The binding ability of the synthesized DNA aptamers was analyzed via gel shift assay. Specifically, the DNA aptamers (100 nM) and the vWF A1 domain (100 nM, V003, U-Protein) were suspended in 20 μl of a reaction solution (1×PBS, 0.005% Nonidet P-40), and incubated at 37° C. for 30 minutes. Thereafter, 25% glycerol containing bromophenol blue was added to be a final concentration of glycerol to 5% therein, the resultant was subjected to 8% nondenaturing polyacrylamide gel electrophoresis at 4° C., and the DNA aptamers bound to the vWF A1 domain were separated from the free DNA aptamers. Thereafter, the DNA aptamers were stained with SYBR Gold (Thermo Fisher Scientific) diluted 1/20,000-fold with the 1×TBE solution and detected by a bioimage analyzer (LAS-4000, Fujifilm Corporation). The percentage of gel shifting was determined by dividing the amount of the complex by the amount of the free form and the complex, each deduced based on a band and expressing the determined value in a percentage figure.
Gel shift assay was carried out in the same manner as in Example 3, except that electrophoresis was carried out at 4° C. and 300 V, 25° C. and 40 W, and 37° C. and 40 W.
And the activity of vWF2-DsAA (o) and vWF2-AADs (p) were decreased in comparison with vWF2-DsDsDs (m).

B1: ARC1172 (ssDNA)
DNA: GGCGTGCAGTGCCTTCGGCCGTGCGGTGCCTCCGTCACGCC
  binding result: binds
